{"source": "patent US10774121B2", "about": "“Methods and compositions for treating neurodegenerative disorders and Alzheimer's Disease and improving normal memory” (The Regents of the University of California, priority 2006, dated 2020)", "test_system": "protein tyrosine kinase activity", "assay": "Protein tyrosine kinase ELISA on extracts of β-APP-transfected ES double-null cells mixed with PS-1-transfected DAMI cells", "assay_type": "cell-based", "conditions": "25 μg protein added, 0-20 min after mixing", "method": "DAMI:ES cells: Equal numbers (0.5×10^6/ml) of β-APP 695 (Selkoe and Podlisny, 2002)-transfected ES double-null cells and PS-1 transfected DAMI cells were co-cultured at 37° C. for various times between 0-20 mins.\nAt several times between 0 and 20 min after mixing, an aliquot of each cell mixture was rapidly centrifuged, the culture medium was removed, and the cell pellet was suspended in 200 μl of extraction buffer (50 mM Tris, pH 8.0/150 mM NaCl/0.5% Nonidet-P40) containing protease inhibitors (1 mM 4-(2-aminoethyl) benzene sulfonyl fluoride hydrochloride (AEBSF)/1 μg/ml antipain/0.1 μg/ml pepstatin A/0.1 μg/ml leupeptin) and the phosphatase inhibitor sodium orthovanadate (0.1 mM). The mixture was sonicated with three bursts of 20 sec duration and then centrifuged. These extract supernatants were then used for Western blot and ELISA analyses as described below.\nELISAs Protein tyrosine kinase activity was measured by an Enzyme Linked Immunosorbent Assay (ELISA) using a tyrosine kinase assay kit (Upstate Biotechnology). A biotinylated substrate peptide containing tandem repeats of Poly (Glu4-Tyr) was incubated with supernatants of extracts of transfected cells mixed for different times ([…]) in the presence of non-radioactive ATP and a Mn^2+/Mg^2+ co-factor cocktail according to the manufacturer's protocols. […]", "data": [{"molecule": "N-terminal domain of PS-2 fused to FLAG: fusion protein with FLAG attached at the N-terminus of the PS-2 N-terminal domain (protein, left off: small tags and cut ends, fusion protein with FLAG attached at the N-terminus of the PS-2 N-terminal domain) MLTFMASDSEEEVCDERTSLMSAESPTPRSCQEGRQGPEDGENTAQWRSQENEEDGEEDPDRYVCSGVPGRPPGLEEELTLKYGAKH", "values": [{"measurement": "transient increase in protein tyrosine kinase activity after cell mixing", "value": "very similar transient increases"}, {"measurement": "transient increase in protein tyrosine kinase activity after cell mixing", "setting": "listed as FLAG-PS-2 N-terminal domain fusion peptide", "value": "did not inhibit"}]}]}
